This note sets out measurements from patent US20110059889A1 (SYNTONIX PHARMACEUTICALS, published 2011).

Where two headings read alike, the source gives them in different places. Bridge positions count the residues as written; N and C are the ends. Square brackets hold non-standard residues; d marks the D form. Ends that are not written are not given here. Phe(F5) = N[C@@H](Cc1c(F)c(F)c(F)c(F)c1F)C(=O)O; Phe(4-NH2) = Nc1ccc(C[C@H](N)C(=O)O)cc1; Phe(2-Me) = Cc1ccccc1C[C@H](N)C(=O)O; NMeL = CN[C@@H](CC(C)C)C(=O)O; Pen = CC(C)(S)[C@H](N)C(=O)O; Sar = CNCC(=O)O

For assay [1], the target named is T1, soluble human FcRn (shFcRn) (human, UniProt P55899 24-297; P61769 21-119).
T1 construct: Biotinylated for the ELISA, amine-coupled to a CM5 chip for SPR; also called biotinylated shFcRn
Briefly: IgG competition ELISA. A general note: ELISA stands for enzyme-linked immunosorbent assay.
Method: (§1) The wells were coated with 100 μl/well of 1 μg/ml biotinylated-shFcRn in Buffer A. The plate was sealed and incubated at 37° C. for 2 hours. Afterwards, the plate was washed with 200 μl/well of Buffer B (Buffer B: 100 mM MES pH 6, 150 mM NaCl, 0.5% BSA IgG-free (Jackson ImmunoResearch, West Grove, Pa.), 0.05% Tween-20). […] To allow for mixing, the plate was rocked for 2 minutes, sealed and incubated at 37° C. for 2 hours. […] The plate was covered, incubated for 30 minutes at room temperature and washed 4 times with 200 μl/well of ice-cold buffer B. SureBlue TMB substrate solution (100 μl/well, KPL, Gaithersburg, Md.) was added and the plate was allowed to incubate at room temperature until color developed, which took 5 to 10 minutes. Once color developed, 100 μl/well of TMB stop solution (KPL, Gaithersburg, Md.) was added and the absorbance was measured at 450 nm. The data was plotted as absorbance vs. peptide concentration to derive the inhibitory concentration 50% (IC₅₀) values.

The target in assay [2] is T1, soluble human FcRn (shFcRn). Briefly: SPR pH 6; Peptide No. 88: Pen, 2-MePhe for Phe (QRF-Pen-TGH-(2-MePhe)-…).
Method: (§2) The following steps were performed to cross-link soluble human or cynomolgus FcRn to the dextran surface of a CM5 sensor chip (Biacore AB, Uppsala, Sweden) by an amine coupling reaction involving 1-ethyl-(3-dimethylaminopropyl)-carbodiimide hydrochloride (EDC) (Biacore AB, Uppsala, Sweden) and N-hydroxysuccinimide (NHS) (Biacore AB, Uppsala, Sweden) as recommended by Biacore (BIAapplications Handbook, version AB, section 4.2, Biacore AB, Uppsala, Sweden). […] Residual sites on the FcRn flow cell were blocked with 1 M ethanolamine hydrochloride pH 8.5 (Biacore AB, Uppsala, Sweden). A control flow cell was blocked with ethanolamine for reference subtraction. For analysis of the monomeric peptides, FcRn was coated to a final density of 4000-5000 response units (RU). For analysis of the peptide dimers, FcRn was coated to a density of 2000-2500 RU. All SPR measurements were performed using a BIACORE 3000 Instrument (Biacore AB Uppsala, Sweden). For measurements done at either pH 6 or pH 7.4, experiments were performed in 50 mM phosphate, 100 mM sodium chloride, 0.01% surfactant P20 (Biacore AB, Uppsala, Sweden).
(§3) Ten, 2-fold dilutions of the peptide were injected over the FcRn-CM5 chip at a rate of 20 μl/min for 2 min. The peptide was dissociated from the chip for 2.5 minutes with buffer. […] Sensorgrams were generated and analyzed using BiaEval software version 3.1 (Biacore AB, Uppsala, Sweden). […]
Assay [3] shares this target. Briefly: SPR pH 6; Peptide No. 94: Pen, PheNHAc for Phe (QRF-Pen-TGH-(PheNHAc)-…).
Method: as §2, §3
For assay [4] the target is unchanged. Briefly: SPR pH 6.
Method: as §2
(§4) Ten, 2-fold dilutions of the peptide were injected over the FcRn-CM5 chip at a rate of 20 μl/min for 2 min. The peptide was dissociated from the chip for 2.5 minutes with buffer. Any remaining peptide was removed from the chip with a 30 second injection of HBS-P buffer (Biacore AB, Uppsala, Sweden) at a rate of 30 μl/min. Sensorgrams were generated and analyzed using BiaEval software version 3.1 (Biacore AB, Uppsala, Sweden). The equilibrium RU observed for each injection was plotted against concentration. The equilibrium KD values were derived by analysis of the plots using the steady state affinity model included in the BiaEval software.
Assay [5] shares this target. Kind of assay: SPR pH 7.4.
Method: as §2, §3
Assay [6] has the same target. Kind of assay: IgG competition ELISA. The source holds these as a separate data set.
Method: as §1
Assay [7] shares this target. Briefly: SPR pH 7.4; Peptide No. 146: Pen for Cys and NMeLeu for Leu (RF-Pen-TGHFGG-NMeLeu-YPCNGP).
Method: as §2, §3
The target is the same in assay [8]. Kind of assay: IgG competition ELISA. This is another data set of the same source.
The target is the same in assay [9]. Kind of assay: SPR pH 6; 4-amino-Phe in place of Tyr; Pen backbone.
Method: as §2, §3
Assay [10] has the same target. Briefly: SPR pH 6; Peptide No. 189: Pen, lower-case a, Sar (QRF-Pen-TGHF-a-Sar-LYPCNGP).
Method: as §2, §3
Assay [11] has the same target. Briefly: SPR pH 6; Peptide No. 75: Pen, lower-case a-G (QRF-Pen-TGHF-a-G-LYPCNGP).
Method: as §2, §3
For assay [12] the target is unchanged. Briefly: SPR pH 6. This is another data set of the same source.
Method: as §2, §4
For assay [13] the target is unchanged. Kind of assay: SPR pH 7.4. This is another data set of the same source.
Method: as §2, §3
Assay [14] has the same target. Briefly: IgG competition ELISA. This is another data set of the same source.
Method: as §1
Assay [15] shares this target. Kind of assay: SPR pH 6; Peptide No. 74: Pen, G and lower-case a (QRF-Pen-TGHF-G-a-LYPCNGP).
Method: as §2, §3
The target is the same in assay [16]. Kind of assay: IgG competition ELISA. The source holds these as a separate data set.
Method: as §1
Assay [17] has the same target. Briefly: SPR pH 6; pentafluoroPhe in place of Tyr; Pen backbone.
Method: as §2, §3

T1 sequence (P55899 24-297 limits assumed, chain 1 of 2): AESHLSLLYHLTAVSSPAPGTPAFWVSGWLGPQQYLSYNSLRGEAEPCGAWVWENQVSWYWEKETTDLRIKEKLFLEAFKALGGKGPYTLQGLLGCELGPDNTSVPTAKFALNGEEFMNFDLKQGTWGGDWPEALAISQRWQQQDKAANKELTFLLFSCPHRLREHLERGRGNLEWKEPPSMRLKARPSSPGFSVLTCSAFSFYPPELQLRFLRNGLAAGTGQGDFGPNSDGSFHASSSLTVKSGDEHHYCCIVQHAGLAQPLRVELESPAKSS
T1 sequence (P61769 21-119 limits assumed, chain 2 of 2): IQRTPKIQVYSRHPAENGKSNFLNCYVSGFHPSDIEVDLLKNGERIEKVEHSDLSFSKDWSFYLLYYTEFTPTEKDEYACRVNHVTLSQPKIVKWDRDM

B1: Peptide No. 88 (peptide)
peptide: QRF[Pen]TGH[Phe(2-Me)]GGLYPCNGP-NH2
modifications: disulfide 4-14; N-terminus assumed
SMILES: Cc1ccccc1C[C@@H]1NC(=O)[C@H](Cc2c[nH]cn2)NC(=O)CNC(=O)[C@H]([C@@H](C)O)NC(=O)[C@@H](NC(=O)[C@H](Cc2ccccc2)NC(=O)[C@H](CCCNC(=N)N)NC(=O)[C@@H](N)CCC(N)=O)C(C)(C)SSC[C@@H](C(=O)N[C@@H](CC(N)=O)C(=O)NCC(=O)N2CCC[C@H]2C(N)=O)NC(=O)[C@@H]2CCCN2C(=O)[C@H](Cc2ccc(O)cc2)NC(=O)[C@H](CC(C)C)NC(=O)CNC(=O)CNC1=O
In turn, B1 came in with a concentration for half-maximal inhibition (IC50) in assay [1] of 1000 nM. Besides, the equilibrium dissociation constant (Kd) in [2] is 200 nM. As to QRF[Pen]TGH[Phe(4-NHAc)]GGLYPCNGP-NH2 (disulfide 4-14) [Peptide No. 94], the Kd in [3] was 270 µM.

B2: Peptide No. 147 (peptide)
peptide: RF[Pen]TGHFG[Sar]YPCNGP-NH2
modifications: disulfide 3-12; N-terminus assumed
SMILES: C[C@@H](O)[C@@H]1NC(=O)[C@@H](NC(=O)[C@H](Cc2ccccc2)NC(=O)[C@@H](N)CCCNC(=N)N)C(C)(C)SSC[C@@H](C(=O)N[C@@H](CC(N)=O)C(=O)NCC(=O)N2CCC[C@H]2C(N)=O)NC(=O)[C@@H]2CCCN2C(=O)[C@H](Cc2ccc(O)cc2)NC(=O)CN(C)C(=O)CNC(=O)[C@H](Cc2ccccc2)NC(=O)[C@H](Cc2c[nH]cn2)NC(=O)CNC1=O
notes: copied as printed (RF-Pen-TGHFG-Sar-YPCNGP); a Leu after Sar may be missing in the print
With B2, the dissociation constant Kd in assay [4] is 58 nM; in assay [5], 350 nM. The IC50 in assay [6] was found to be 1000 nM.

B3: Peptide No. 146 (peptide)
peptide: RF[Pen]TGHFGG[NMeL]YPCNGP-NH2
modifications: disulfide 3-13; N-terminus assumed
SMILES: CC(C)C[C@H]1C(=O)N[C@@H](Cc2ccc(O)cc2)C(=O)N2CCC[C@H]2C(=O)N[C@H](C(=O)N[C@@H](CC(N)=O)C(=O)NCC(=O)N2CCC[C@H]2C(N)=O)CSSC(C)(C)[C@H](NC(=O)[C@H](Cc2ccccc2)NC(=O)[C@@H](N)CCCNC(=N)N)C(=O)N[C@@H]([C@@H](C)O)C(=O)NCC(=O)N[C@@H](Cc2c[nH]cn2)C(=O)N[C@@H](Cc2ccccc2)C(=O)NCC(=O)NCC(=O)N1C
Turning to B3, the equilibrium dissociation constant (Kd) in assay [4] is 59 nM; in [7] it was 280 nM. Besides, the 50% inhibitory concentration (IC50) in assay [6] was 2100 nM.

B4: Peptide No. 63 (peptide)
peptide: QRF[Pen]TGHFGGL[Phe(4-NH2)]PCNGP-NH2
modifications: disulfide 4-14; N-terminus assumed
SMILES: CC(C)C[C@@H]1NC(=O)CNC(=O)CNC(=O)[C@H](Cc2ccccc2)NC(=O)[C@H](Cc2c[nH]cn2)NC(=O)CNC(=O)[C@H]([C@@H](C)O)NC(=O)[C@@H](NC(=O)[C@H](Cc2ccccc2)NC(=O)[C@H](CCCNC(=N)N)NC(=O)[C@@H](N)CCC(N)=O)C(C)(C)SSC[C@@H](C(=O)N[C@@H](CC(N)=O)C(=O)NCC(=O)N2CCC[C@H]2C(N)=O)NC(=O)[C@@H]2CCCN2C(=O)[C@H](Cc2ccc(N)cc2)NC1=O
In [8], B4 gave an IC50 of 110 µM. This molecule displayed a Kd in [9] of 34 µM.

B5: Peptide No. 189 (peptide)
peptide: QRF[Pen]TGHF[dA][Sar]LYPCNGP-NH2
modifications: disulfide 4-14; N-terminus assumed
SMILES: CC(C)C[C@@H]1NC(=O)CN(C)C(=O)[C@@H](C)NC(=O)[C@H](Cc2ccccc2)NC(=O)[C@H](Cc2c[nH]cn2)NC(=O)CNC(=O)[C@H]([C@@H](C)O)NC(=O)[C@@H](NC(=O)[C@H](Cc2ccccc2)NC(=O)[C@H](CCCNC(=N)N)NC(=O)[C@@H](N)CCC(N)=O)C(C)(C)SSC[C@@H](C(=O)N[C@@H](CC(N)=O)C(=O)NCC(=O)N2CCC[C@H]2C(N)=O)NC(=O)[C@@H]2CCCN2C(=O)[C@H](Cc2ccc(O)cc2)NC1=O
Take B5: the Kd in assay [10] was determined as 190 nM.

B6: Peptide No. 75 (peptide)
peptide: QRF[Pen]TGHF[dA]GLYPCNGP-NH2
modifications: disulfide 4-14; N-terminus assumed
SMILES: CC(C)C[C@@H]1NC(=O)CNC(=O)[C@@H](C)NC(=O)[C@H](Cc2ccccc2)NC(=O)[C@H](Cc2c[nH]cn2)NC(=O)CNC(=O)[C@H]([C@@H](C)O)NC(=O)[C@@H](NC(=O)[C@H](Cc2ccccc2)NC(=O)[C@H](CCCNC(=N)N)NC(=O)[C@@H](N)CCC(N)=O)C(C)(C)SSC[C@@H](C(=O)N[C@@H](CC(N)=O)C(=O)NCC(=O)N2CCC[C@H]2C(N)=O)NC(=O)[C@@H]2CCCN2C(=O)[C@H](Cc2ccc(O)cc2)NC1=O
The molecule B6 registered a dissociation constant Kd in [11] of 490 nM.

B7: Peptide No. 296 (peptide)
peptide: QRF[Pen]HGHFGGLYPCNGP-NH2
modifications: disulfide 4-14; N-terminus assumed
SMILES: CC(C)C[C@@H]1NC(=O)CNC(=O)CNC(=O)[C@H](Cc2ccccc2)NC(=O)[C@H](Cc2c[nH]cn2)NC(=O)CNC(=O)[C@H](Cc2c[nH]cn2)NC(=O)[C@@H](NC(=O)[C@H](Cc2ccccc2)NC(=O)[C@H](CCCNC(=N)N)NC(=O)[C@@H](N)CCC(N)=O)C(C)(C)SSC[C@@H](C(=O)N[C@@H](CC(N)=O)C(=O)NCC(=O)N2CCC[C@H]2C(N)=O)NC(=O)[C@@H]2CCCN2C(=O)[C@H](Cc2ccc(O)cc2)NC1=O
Consider B7, for which the equilibrium dissociation constant (Kd) came to 150 nM in [12] and 960 nM in assay [13]. The IC50 in [14] came to 3000 nM.

B8: Peptide No. 74 (peptide)
peptide: QRF[Pen]TGHFG[dA]LYPCNGP-NH2
modifications: disulfide 4-14; N-terminus assumed
SMILES: CC(C)C[C@@H]1NC(=O)[C@@H](C)NC(=O)CNC(=O)[C@H](Cc2ccccc2)NC(=O)[C@H](Cc2c[nH]cn2)NC(=O)CNC(=O)[C@H]([C@@H](C)O)NC(=O)[C@@H](NC(=O)[C@H](Cc2ccccc2)NC(=O)[C@H](CCCNC(=N)N)NC(=O)[C@@H](N)CCC(N)=O)C(C)(C)SSC[C@@H](C(=O)N[C@@H](CC(N)=O)C(=O)NCC(=O)N2CCC[C@H]2C(N)=O)NC(=O)[C@@H]2CCCN2C(=O)[C@H](Cc2ccc(O)cc2)NC1=O
In [15], B8 came in with an equilibrium dissociation constant (Kd) of 480 nM. Also, in [16], the IC50 was 2000 nM.

B9: Peptide No. 65 (peptide)
peptide: QRF[Pen]TGHFGGL[Phe(F5)]PCNGP-NH2
modifications: disulfide 4-14; N-terminus assumed
SMILES: CC(C)C[C@@H]1NC(=O)CNC(=O)CNC(=O)[C@H](Cc2ccccc2)NC(=O)[C@H](Cc2c[nH]cn2)NC(=O)CNC(=O)[C@H]([C@@H](C)O)NC(=O)[C@@H](NC(=O)[C@H](Cc2ccccc2)NC(=O)[C@H](CCCNC(=N)N)NC(=O)[C@@H](N)CCC(N)=O)C(C)(C)SSC[C@@H](C(=O)N[C@@H](CC(N)=O)C(=O)NCC(=O)N2CCC[C@H]2C(N)=O)NC(=O)[C@@H]2CCCN2C(=O)[C@H](Cc2c(F)c(F)c(F)c(F)c2F)NC1=O
As for B9, the dissociation constant (Kd) in [17] worked out at 72 µM.

The IC50 is the concentration at which inhibition is half-maximal. A higher IC50 goes with weaker potency. As a reminder, the Kd is the constant that tells how readily two partners part at equilibrium. Read a low Kd as a tighter complex.
